This assay deals with HLA-A*02:01 refolded with the photocleavable peptide photoKV9, UV-exposed (A*02/photoKV9). Description: fluorescence polarisation.

The IC50 is the point on the concentration scale where inhibition reaches its midpoint. Lower therefore signals greater potency in that assay. On to “US11 peptide S28V_WT (amino acids 17 to 44) (from UniProt P09727 17-44)”, for which the IC50 was found to be 3.83 µM.

For the origin of these results see publication PMC10907249.
